In the RNAGym collection of RNA variant scans (doi:10.7554/elife.80360):

B1: Hairpin Ribozyme (parent)
chain: GUCCUCUUUCACGUGCGCGUGAAAGAGAGAAGUGAACCAGAGAAACACACGUUGUGGUAUAUUACCUGGUA

Variants of: B1
Assay: self-cleavage, relative activity (ratio to wild type); higher = more cleavage; co-transcriptional

Variant	self-cleavage
GUCCUCUUUCACGUGCGCAUGAACGAGAGAAGUGAACCAGAGAAACACACGUUGUGGUAUAUUACCUGGUA	0.615
GUCCUCUUUCACGUGCGCCUGAAAGAGAGAAGUGAACCAGAGAAAUACACGUUGUGGUAUAUUACCUGGUA	0.229
GUCCUCUUUCACGUGCGCCUGAAAGAGAGAAGUGAACCAGAGAAAGACACGUUGUGGUAUAUUACCUGGUA	0.088
GUCCUCUUUCACGUGCGCCUGAAAGAGAGUAGUGAACCAGAGAAACACACGUUGUGGUAUAUUACCUGGUA	0.161
GUCCUCUUUCACGUGCGCAUAAAAGAGAGAAGUGAACCAGAGAAACACACGUUGUGGUAUAUUACCUGGUA	0.659
GUCCUCUUUCACGUGCGCAUGAAAGAGAGAAGUGAAUCAGAGAAACACACGUUGUGGUAUAUUACCUGGUA	0.567
GUCCUCUUUCACGUGCGCAUGAAAGAGAGAAGUGAACCAGCGAAACACACGUUGUGGUAUAUUACCUGGUA	1.13
GUCCUCUUUCACGUGCGCAUGAAAGAGAGAAGUGAACCAGAGAAACACACGUUGUGGUAUUUUACCUGGUA	0.147
GUCCUCUUUCACGUGCGCAUGAAAGAGAGAAGUGAACCAGAGAAACACACGUUGUGGUAUGUUACCUGGUA	0.158
GUCCUCUUUCACGUGCGUGUGAAAGAGAGAAGUGAACCAGAGAAACACACGUUGUGGUAUAGUACCUGGUA	0.0807
GUCCUCUUUCACGUGCGCAUGAAAGAGAGAAGUGAACCAGAGAAACACACUUUGUGGUAUAUUACCUGGUA	0.881
GUCCUCUUUCACGUGCGCAUGAAAGAGAGAAGUGAACCAGAGAAACACACCUUGUGGUAUAUUACCUGGUA	0.702
GUCCUCUUUCACGUGCGCAUGAAAGAGAGAAGUGAACCAGAGAAACACACGUUGUGGUUUAUUACCUGGUA	0.0875
GUCCUCUUUCACGUGCGCCUGAAAGAGAGAAGUGAACCGGAGAAACACACGUUGUGGUAUAUUACCUGGUA	0.28
GUCCUCUUUCACGUGCGCCUGAAAGAGAGAAGUGAACCAGAGCAACACACGUUGUGGUAUAUUACCUGGUA	0.11
GUCCUCUUUCACGUGCGCAUGAAAGAGAGAAGUGAACCAGAGAAACACACGUUGUGGUAUACUACCUGGUA	0.278
GUCCUCUUUCACGUGCGCCUGAGAGAGAGAAGUGAACCAGAGAAACACACGUUGUGGUAUAUUACCUGGUA	0.611
GUCCUCUUUCACGUGCGCAUGAAAGAGAGAAGUGAACCAGAGAAACACACGUUGUGGUAUAUUACCUGGUG	0.857
GUCCUCUUUCACGUGCGCAUGAAAGAGAGAAGUGAACCAGAGAAACACACGUUGUGGUAUAUUACCUGGUU	0.648

Variant	self-cleavage
GUCCUCUUUCACGUGCGCAUGAAAGAGAGAAGUGAACCAGAGAAACACACGUUGUGGUAUAUUACCUGGGA	0.917
GUCCUCUUUCACGUGCGCCUGAAAGAGAGAAGUGAACCAGAGAAACACACGUUGUGGUAUAUUGCCUGGUA	0.545
GUCCUCUUUCACGUGCGCCUGAAAGAGAGAAGUGAACCAGAGAAACAUACGUUGUGGUAUAUUACCUGGUA	0.132
GUCCUCUUUCACGUGCGCCUGAAAGAGAGAAGUGAACCAGAGAAACAAACGUUGUGGUAUAUUACCUGGUA	0.122
GUCCUCUUUCACGUGCGCAUGAAAGAGAGAAGUGAACCAGAGAAACACAUGUUGUGGUAUAUUACCUGGUA	0.401
GUCCUCUUUCACGUGCGCAUGAAAGAGAGAAGUGAACCAGAGAAACACAGGUUGUGGUAUAUUACCUGGUA	0.247
GUCCUCUUUCACGUGCGCAUGAAAGAGAGAAGUGAACCAGAGAAACAAACGUUGUGGUAUAUUACCUGGUA	0.136
GUCCUCUUUCACGUGCGUGUGAAAGAGAGAAGUGAACCAGAGAAACACACGUUGUGGUAUAUUACCGGGUA	0.303
GUCCUCUUUCACGUGCGCAUGAAAGAGAGAAGUGAACCAGAGAAACACACGUUGUGGUAUAUUUCCUGGUA	0.198
GUCCUCUUUCACGUGCGCAUGAAAGAGAGAAGUGAACCAGAGAAACACACGUCGUGGUAUAUUACCUGGUA	0.854
GUCCUCUUUCACGUGCGCAUGAAAGAGAGAAGUGAACCAGAGAAACACACGUGGUGGUAUAUUACCUGGUA	0.691
GUCCUCUUUCACGUGCGUGUGAAAGAGAGAAGUGAACCAGAGAAACACACGUUGUGGUAUAUUACCUGGAA	0.899
GUCCUCUUUCACGUGCGCAUGAAAGAGAGAAGUGAACCUGAGAAACACACGUUGUGGUAUAUUACCUGGUA	0.404
GUCCUCUUUCACGUGCGCAUGAAAGAGAGAGGUGAACCAGAGAAACACACGUUGUGGUAUAUUACCUGGUA	0.7
GUCCUCUUUCACGUGCGCAAGAAAGAGAGAAGUGAACCAGAGAAACACACGUUGUGGUAUAUUACCUGGUA	0.762
GUCCUCUUUCACGUGCGCACGAAAGAGAGAAGUGAACCAGAGAAACACACGUUGUGGUAUAUUACCUGGUA	1.12
GUCCUCUUUCACGUGCGCCUGAAAGAGAGACGUGAACCAGAGAAACACACGUUGUGGUAUAUUACCUGGUA	0.143
GUCCUCUUUCACGUGCGCCUGAAAGUGAGAAGUGAACCAGAGAAACACACGUUGUGGUAUAUUACCUGGUA	0.719
GUCCUCUUUCACGUGCGCAUGAAAGAGACAAGUGAACCAGAGAAACACACGUUGUGGUAUAUUACCUGGUA	0.184
